Reference: patent publication US20220162322A1 (CAPELLA BIOSCIENCE, published 2022)

Columns and labels:
[1] = molecular target: T1, human BDCA-2-Fc (hIgG1-Fc-hBDCA-2) (human); experiment: SPR (BIAcore), comparison of KD
T1 construct: also called huBDCA2-Fc

[2] = molecular target: T1, human BDCA-2-Fc (hIgG1-Fc-hBDCA-2); experiment: ELISA on plate-coated human BDCA2-Fc
Experimental: 100 ul per well of 0.5 μg/ml of human BDCA2-Fc in PBS pH 7.4 was incubated overnight at 4 C. The wells were then washed 3 times with PBST (PBS+0.05% Tween 20) and then blocked with 250 ul 4% Skimmed Milk (Marvel, cat. no. 3023033 Lot no. 7169) in PBS for 120 min at RT. The wells were washed and then incubated with 100 ul per well of humanized mAbs at 3 fold dilutions (from 1 μg/ml to 0.001 μg/ml) in 1% Skimmed Milk PBS buffer at pH 7.4. After 60 min at RT the wells were washed 3 times in PBST and 100 ul of mouse anti-human IgG (anti-CH1-HRP; 1:1000, BD Pharmigen cat. no. 555788) or donkey anti-mouse IgG (anti-mouse IgG-HRP) at 1:5000 dilution (Jackson ImmunoResearch, Cat. no. 715-035-150) in 1% Skimmed Milk PBS was added. Development was with TMB (ThermoFisher, cat. no. 00-4201-56), 100 ul/well and the reaction stopped with 100 μl/well H2SO4 (cat. nr. J/8430/15, lot nr.) and the absorbance read at 450 nm. The EC50 was calculated using Graphpad Prism software. A negative (1% Skimmed Milk/PBS) and positive control (anti-BDCA-2, AC144, Miltenyi Biotec, cat. no. 130-090-690) were utilised in the assay.

[3] = molecular target: T1, human BDCA-2-Fc (hIgG1-Fc-hBDCA-2); experiment: SPR (BIAcore T200), huBDCA2-Fc immobilised on CM5 chip, mAb injected
Experimental: A BIAcore T200 was used with BIAcore run buffer (HBS-EP) at pH7.4. 692RU of huBDCA2-Fc was immobilized to a CM5 chip (CFJB156) utilising 5 μg/ml of huBDCA2-Fc with the BIAcore EDC/NHS kit according to the manufacturer's instructions. Two-fold dilutions of the humanized mAbs were injected starting at 200 nM down to 3.1 nM with a contact time of 60 s at a flow of 30 or 60 ul/min at 25° C. followed by an off-rate wash for 5 minutes with BIAcore buffer. […] The BIAcore T200 software was used to calculate Ka (1/Ms), Kd (1/s) and the KD (nM).

T1 sequence (chain, as listed by the source limits assumed): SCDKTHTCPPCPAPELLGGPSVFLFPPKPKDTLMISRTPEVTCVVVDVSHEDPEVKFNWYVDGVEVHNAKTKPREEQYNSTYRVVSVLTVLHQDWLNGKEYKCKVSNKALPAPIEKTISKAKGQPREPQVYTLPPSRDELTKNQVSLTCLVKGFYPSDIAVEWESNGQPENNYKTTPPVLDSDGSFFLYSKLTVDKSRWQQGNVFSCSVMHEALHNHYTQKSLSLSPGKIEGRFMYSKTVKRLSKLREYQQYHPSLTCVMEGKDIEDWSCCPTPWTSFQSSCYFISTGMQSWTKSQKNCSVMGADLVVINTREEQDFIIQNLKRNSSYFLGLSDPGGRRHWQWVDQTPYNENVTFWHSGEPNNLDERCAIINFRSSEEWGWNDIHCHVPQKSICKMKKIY

| fold higher affinity than parental wild type 3E05 and AC144 [1] [fold] | EC50 [2] [nM] | Kd [3] [nM] | Binder |
| --- | --- | --- | --- |
| > 100 | 0.51 | < 0.01 | 3E05_var1 (antibody, human IgG1, V domains shown, also called 3E05 VL1VH1 (var_1)) VH: EVQLVESGGGLVKPGGSLRLSCAASGFTFSSYTMSWVRQAPGKGLEWVAYISSGGGNTYYPDSVKGRFTISRDNAKNSLYLQMNSLRAEDTAVYYCARHDYYDGGLYYAMDYWGQGTLVTVSS VL: DIVMTQSPDSLAVSLGERATINCKASQSVDYDGDSSMNWYQQKPGQPPKLLISAASTLESGVPSRFSGSGSGTDFTLTISSLQAEDVAVYYCQQTNEDPPTFGGGTKVEIK |
|  | 0.32 | 0.3 | 3E05_var2 (antibody, human IgG1, V domains shown, also called 3E05 VL1VH2 (var_2)) VH: QVQLVESGGGLVKPGGSLRLSCAASGFTFSSYTMSWVRQAPGKGLEWVSYISSGGGNTYYADSVKGRFTISRDNAKNSLYLQMNSLRAEDTAVYYCARHDYYDGGLYYAMDYWGQGTLVTVSS VL: DIVMTQSPDSLAVSLGERATINCKASQSVDYDGDSSMNWYQQKPGQPPKLLISAASTLESGVPSRFSGSGSGTDFTLTISSLQAEDVAVYYCQQTNEDPPTFGGGTKVEIK |
| > 100 | 0.27 | < 0.01 | 3E05_var3 (antibody, human IgG1, V domains shown, also called 3E05 VL1VH3 (var_3)) VH: EVQLVESGGGLVKPGGSLRLSCAASGFTFSSYTMSWVRQAPGKGLEWVAYISSGGGQTYYPDSVKGRFTISRDNAKNSLYLQMNSLRAEDTAVYYCARHDYYDGGLYYAMDYWGQGTLVTVSS VL: DIVMTQSPDSLAVSLGERATINCKASQSVDYDGDSSMNWYQQKPGQPPKLLISAASTLESGVPSRFSGSGSGTDFTLTISSLQAEDVAVYYCQQTNEDPPTFGGGTKVEIK |
| > 100 | 0.29 | < 0.01 | 3E05_var4 (antibody, human IgG1, V domains shown, also called 3E05 VL1VH4 (var_4)) VH: EVQLVESGGGLVKPGGSLRLSCAASGFTFSSYTMSWVRQAPGKGLEWVAYISSGGGQTYYPDSVKGRFTISRDNAKNSLYLQMNSLRAEDTAVYYCARHDYYEGGLYYAMDYWGQGTLVTVSS VL: DIVMTQSPDSLAVSLGERATINCKASQSVDYDGDSSMNWYQQKPGQPPKLLISAASTLESGVPSRFSGSGSGTDFTLTISSLQAEDVAVYYCQQTNEDPPTFGGGTKVEIK |
| > 100 | 0.51 | < 0.01 | 3E05_var5 (antibody, human IgG1, V domains shown, also called 3E05 VL2VH1 (var_5)) VH: EVQLVESGGGLVKPGGSLRLSCAASGFTFSSYTMSWVRQAPGKGLEWVAYISSGGGNTYYPDSVKGRFTISRDNAKNSLYLQMNSLRAEDTAVYYCARHDYYDGGLYYAMDYWGQGTLVTVSS VL: DIVMTQSPDSLAVSLGERATINCKSSQSVDYDGDSSMNWYQQKPGQPPKLLISAASTLESGVPSRFSGSGSGTDFTLTISSLQAEDVATYYCQQTNEDPPTFGGGTKVEIK |
| > 100 | 0.33 | < 0.01 | 3E05_var7 (antibody, human IgG1, V domains shown, also called 3E05 VL2VH3 (var_7)) VH: EVQLVESGGGLVKPGGSLRLSCAASGFTFSSYTMSWVRQAPGKGLEWVAYISSGGGQTYYPDSVKGRFTISRDNAKNSLYLQMNSLRAEDTAVYYCARHDYYDGGLYYAMDYWGQGTLVTVSS VL: DIVMTQSPDSLAVSLGERATINCKSSQSVDYDGDSSMNWYQQKPGQPPKLLISAASTLESGVPSRFSGSGSGTDFTLTISSLQAEDVATYYCQQTNEDPPTFGGGTKVEIK |
| > 100 | 0.21 | < 0.01 | 3E05_var8 (antibody, human IgG1, V domains shown) VH: EVQLVESGGGLVKPGGSLRLSCAASGFTFSSYTMSWVRQAPGKGLEWVAYISSGGGQTYYPDSVKGRFTISRDNAKNSLYLQMNSLRAEDTAVYYCARHDYYEGGLYYAMDYWGQGTLVTVSS VL: DIVMTQSPDSLAVSLGERATINCKSSQSVDYDGDSSMNWYQQKPGQPPKLLISAASTLESGVPSRFSGSGSGTDFTLTISSLQAEDVATYYCQQTNEDPPTFGGGTKVEIK |
| > 100 | 1.12 | < 0.01 | 3E05_var9 (antibody, human IgG1, V domains shown, also called 3E05 VL3VH1 (var_9)) VH: EVQLVESGGGLVKPGGSLRLSCAASGFTFSSYTMSWVRQAPGKGLEWVAYISSGGGNTYYPDSVKGRFTISRDNAKNSLYLQMNSLRAEDTAVYYCARHDYYDGGLYYAMDYWGQGTLVTVSS VL: DIVMTQSPDSLAVSLGERATINCKSSQSVDYDGDSSMNWYQQKPGQPPKLLIYAASTLESGVPSRFSGSGSGTDFTLTISSLQAEDVATYYCQQTNEDPPTFGGGTKVEIK |
|  | 0.71 | 0.73 | 3E05_var10 (antibody, human IgG1, V domains shown, also called 3E05 VL3VH2 (var_10)) VH: QVQLVESGGGLVKPGGSLRLSCAASGFTFSSYTMSWVRQAPGKGLEWVSYISSGGGNTYYADSVKGRFTISRDNAKNSLYLQMNSLRAEDTAVYYCARHDYYDGGLYYAMDYWGQGTLVTVSS VL: DIVMTQSPDSLAVSLGERATINCKSSQSVDYDGDSSMNWYQQKPGQPPKLLIYAASTLESGVPSRFSGSGSGTDFTLTISSLQAEDVATYYCQQTNEDPPTFGGGTKVEIK |
|  | 0.81 | 0.94 | 3E05_var11 (antibody, human IgG1, V domains shown, also called 3E05 VL3VH3 (var_11)) VH: EVQLVESGGGLVKPGGSLRLSCAASGFTFSSYTMSWVRQAPGKGLEWVAYISSGGGQTYYPDSVKGRFTISRDNAKNSLYLQMNSLRAEDTAVYYCARHDYYDGGLYYAMDYWGQGTLVTVSS VL: DIVMTQSPDSLAVSLGERATINCKSSQSVDYDGDSSMNWYQQKPGQPPKLLIYAASTLESGVPSRFSGSGSGTDFTLTISSLQAEDVATYYCQQTNEDPPTFGGGTKVEIK |
| > 100 | 0.45 | < 0.01 | 3E05_var13 (antibody, human IgG1, V domains shown, also called 3E05 VL4VH1 (var_13)) VH: EVQLVESGGGLVKPGGSLRLSCAASGFTFSSYTMSWVRQAPGKGLEWVAYISSGGGNTYYPDSVKGRFTISRDNAKNSLYLQMNSLRAEDTAVYYCARHDYYDGGLYYAMDYWGQGTLVTVSS VL: DIVMTQSPDSLAVSLGERATINCKASQSVDYEGDSSMNWYQQKPGQPPKLLISAASTLESGVPSRFSGSGSGTDFTLTISSLQAEDVAVYYCQQTNEDPPTFGGGTKVEIK |
| > 100 | 0.25 | < 0.01 | 3E05_var15 (antibody, human IgG1, V domains shown, also called 3E05 VL4VH3 (var_15)) VH: EVQLVESGGGLVKPGGSLRLSCAASGFTFSSYTMSWVRQAPGKGLEWVAYISSGGGQTYYPDSVKGRFTISRDNAKNSLYLQMNSLRAEDTAVYYCARHDYYDGGLYYAMDYWGQGTLVTVSS VL: DIVMTQSPDSLAVSLGERATINCKASQSVDYEGDSSMNWYQQKPGQPPKLLISAASTLESGVPSRFSGSGSGTDFTLTISSLQAEDVAVYYCQQTNEDPPTFGGGTKVEIK |
| > 100 | 0.25 | < 0.01 | 3E05_var16 (antibody, human IgG1, V domains shown) VH: EVQLVESGGGLVKPGGSLRLSCAASGFTFSSYTMSWVRQAPGKGLEWVAYISSGGGQTYYPDSVKGRFTISRDNAKNSLYLQMNSLRAEDTAVYYCARHDYYEGGLYYAMDYWGQGTLVTVSS VL: DIVMTQSPDSLAVSLGERATINCKASQSVDYEGDSSMNWYQQKPGQPPKLLISAASTLESGVPSRFSGSGSGTDFTLTISSLQAEDVAVYYCQQTNEDPPTFGGGTKVEIK |
|  |  | 0.7 | anti-BDCA-2 mAb BIIB059 (from patent WO2014093396) (antibody, V domains shown) VH: DVQLVESGGGLVKPGGSLRLSCAASGFTFSTYTMSWVRQAPGKGLEWVATISPGDSFGYYYPDSVQGRFTISRDNAKNSLYLQMNSLRAEDTAVYYCTRDIYYNYGAWFAYWGQGTLVTVSS VL: DIQLTQSPSSLSASVGDRVTITCKASQSVDYDGDSYMNWYQQKPGKAPKLLIYAASTLESGVPSRFSGSGSGTDFTLTISSLQPEDFATYYCQQANEDPRTFGQGTKVEIKR |
